# Source: US20090318342A1, “Compounds” (IMPERIAL INNOVATIONS LIMITED, priority 2005, published 2009)
# What was measured:
# [1] = target: soluble form of TACE in which the transmembrane and C-terminal cytoplasmic domains are deleted (TACE R651) (human) (UniProt P78536); test: TACE inhibition kinetics, Ki(app), pH 9.0, fit with equation 3 (cooperative)
# [2] = target: T1, recombinant human ADAMTS-4 lacking the C-terminal spacer domain (human) (UniProt O75173); test: inhibition of aggrecan cleavage by 0.5 nM ADAMTS-4, anti-GELE Western blot, densitometry
# T1 sequence: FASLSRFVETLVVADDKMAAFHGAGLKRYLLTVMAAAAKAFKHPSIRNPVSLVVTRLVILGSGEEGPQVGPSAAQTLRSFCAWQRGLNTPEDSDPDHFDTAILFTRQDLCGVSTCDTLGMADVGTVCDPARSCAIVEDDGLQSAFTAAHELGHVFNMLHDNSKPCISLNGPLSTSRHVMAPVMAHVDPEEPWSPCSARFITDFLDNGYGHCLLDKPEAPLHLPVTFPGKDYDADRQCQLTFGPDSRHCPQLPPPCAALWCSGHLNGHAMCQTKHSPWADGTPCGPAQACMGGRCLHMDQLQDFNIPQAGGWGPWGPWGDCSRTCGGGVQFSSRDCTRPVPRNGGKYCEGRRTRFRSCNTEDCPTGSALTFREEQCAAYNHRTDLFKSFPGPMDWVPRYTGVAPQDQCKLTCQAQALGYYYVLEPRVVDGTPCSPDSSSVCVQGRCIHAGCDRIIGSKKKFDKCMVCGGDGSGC
# [3] = target: T2, ADAMTS-4 (as used in Example 4; form not stated) (Homo sapiens (Human)) (UniProt O75173); test: GST-IGD-FLAG substrate assay, Ki(app)
# T2 sequence: T1 sequence
# [4] = target: ADAMTS-5 (Homo sapiens (Human)) (UniProt Q9UNA0); test: GST-IGD-FLAG substrate assay, Ki(app)
# [5] = target: full-length collagenase 1 (MMP-1) (Homo sapiens (Human)) (UniProt P03956); test: enzyme inhibition kinetics, Ki(app), 5 nM MMP-1
# [6] = target: catalytic domain of membrane-type 1 MMP (MMP-14(CD)) (Homo sapiens (Human)) (UniProt P50281); test: enzyme inhibition kinetics, Ki(app), 5 nM MMP-14(CD)
# [7] = target: full-length collagenase 1 (MMP-1) (Homo sapiens (Human)) (UniProt P03956); test: MMP-1 inhibition under the conditions used for TACE activity measurements
# Target sequence in this assay (P03956 100-469 limits assumed): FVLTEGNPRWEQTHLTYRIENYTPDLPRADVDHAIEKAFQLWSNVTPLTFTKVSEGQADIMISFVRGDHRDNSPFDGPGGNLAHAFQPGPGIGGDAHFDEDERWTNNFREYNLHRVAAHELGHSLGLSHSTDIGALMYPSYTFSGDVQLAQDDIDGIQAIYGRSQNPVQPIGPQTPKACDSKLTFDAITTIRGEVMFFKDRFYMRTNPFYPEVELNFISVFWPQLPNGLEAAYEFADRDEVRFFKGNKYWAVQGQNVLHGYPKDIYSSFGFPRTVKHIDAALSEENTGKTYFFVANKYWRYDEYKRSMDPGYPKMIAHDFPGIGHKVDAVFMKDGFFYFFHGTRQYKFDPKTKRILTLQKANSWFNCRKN
# [8] = target: catalytic domain of stromelysin 1 (MMP-3(ΔC)) (Homo sapiens (Human)) (UniProt P08254); test: enzyme inhibition kinetics, Ki(app), 1 nM MMP-3(ΔC)
# [9] = target: gelatinase A (MMP-2) (Homo sapiens (Human)) (UniProt P08253); test: enzyme inhibition kinetics, Ki(app), 1 nM MMP-2
# [10] = target: full-length collagenase 1 (MMP-1) (Homo sapiens (Human)) (UniProt P03956); test: enzyme inhibition kinetics, Ki(app), as in Example 1
# [11] = target: catalytic domain of stromelysin 1 (MMP-3(ΔC)) (Homo sapiens (Human)) (UniProt P08254); test: as above
# [12] = target: gelatinase A (MMP-2) (Homo sapiens (Human)) (UniProt P08253); test: as above
# [13] = target: soluble form of TACE in which the transmembrane and C-terminal cytoplasmic domains are deleted (TACE R651) (human) (UniProt P78536); test: TACE inhibition kinetics at pH 7.5
# (-1A)N-TIMP-3, sequence (chain): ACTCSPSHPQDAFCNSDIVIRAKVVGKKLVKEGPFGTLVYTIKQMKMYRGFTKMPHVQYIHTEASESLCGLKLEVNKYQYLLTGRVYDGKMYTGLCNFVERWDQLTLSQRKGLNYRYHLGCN
Ki [1] [nM],Ki [2] [nM],Ki [3] [nM],Ki [4] [nM],Ki [5] [nM],Ki [6] [nM],Ki [7] [nM],Ki [8] [µM],Ki [9] [nM],Ki [10] [nM],Ki [11] [nM],Ki [12] [nM],Ki [13] [nM],Substance
33.9,18,25,1.9,1300,941,412,3.3,614,> 500,> 1000,> 1000,,(-1A)N-TIMP-3
35.6,15,20,1.5,547,2300,,> 10,4200,> 500,> 1000,> 1000,46,N-TIMP-3(T2G)
